{"source": "patent US20250282887A1", "about": "(Amgen, published 2025)", "binders": {"B1": {"name": "1C3 (antibody, V domains shown)", "VH": "QSLEESGGGLVQPEGSLTLTCTAFGVTLTNYYICWVRQAPGKGLEWVGCIDNANGRTYYASWAKGRFTISKTSSTTGTLQMTSLTAADTATYFCARSLATPLWGPGTLVTVSS", "VL": "DIVMTQTPSSVEAAVGGTVTIKCQASQNISSYLAWYQQKPGQPPKLLIYRASTLASGVPSRFKGSGSGTQFTLTISDLECADAATYYCQSYDDSRSSNFFYAFGGGTEVVVKG", "notes": "also called MAGE-B2 (IC3); anti-MAGEB2 antibody 1C3"}, "B2": {"name": "4G17 (antibody, IgG1, V domains shown)", "VH": "B1 VH with F24S, T29S, V47I, A53V", "VL": "DIVMTQTPASVEAAVGGTVTIKCQASQNIDSYLAWYQQKPGQPPKLLIYRASTLASGVPSRFKGSGSGTEFTLTISDLECADAATYYCQSYDDSRSSSFFYGFGGGTEVVVK", "notes": "Rabbit monoclonal IgG1; Tested as supernatant and as small batch purified antibody; also called MAGE-B2 (4G17); anti-MAGEB2 antibody 4G17"}, "B3": {"name": "1J15 (antibody, IgG1, V domains shown)", "VH": "B1 VH with V26F, T29N, V47I, G48A, G77V, A99S", "VL": "B2 VL with N28S, D30S, A34S, K63R, E70Q, R95S, S96D, S97N, S98N, K112R", "notes": "Rabbit monoclonal IgG1; Tested as supernatant and as small batch purified antibody; also called MAGE-B2 (IJ15); anti-MAGEB2 antibody 1J15"}, "B4": {"name": "1I14 (antibody, V domains shown)", "VH": "QSVEESGGRLVTPGTPLTLTCTISGFSLSSYAMSWVRQAPGKGLEWIGSIGGGGSAVYASWAKGRFTISKTSTTVDLRITSPTTEDTAMYFCGRGFYSIDLWGPGTLVTVSS", "VL": "DVVMTQTPASVEATVGGTVTIKCQSSQSVYDNNALAWYQQNAGQRPRLLIYGASTLASGVPSRFSASGSGTEFTLTISDLECADAATYYCQCTYYVSSYQNDFGGGTEVVVKG", "notes": "also called MAGE-B2 (1i14)"}}, "key": {"[1]": {"molecular_target": "T1, Human MAGEB2 (Melanoma-associated antigen B2) (human, UniProt O15479 1-319)", "T1 construct": "Intracellular antigen detected by IHC in FFPE material: CHO cells transfected with human MAGEB2 (mCherry vector with Myc/DDK tags, or ORF without tags)", "T1 sequence": "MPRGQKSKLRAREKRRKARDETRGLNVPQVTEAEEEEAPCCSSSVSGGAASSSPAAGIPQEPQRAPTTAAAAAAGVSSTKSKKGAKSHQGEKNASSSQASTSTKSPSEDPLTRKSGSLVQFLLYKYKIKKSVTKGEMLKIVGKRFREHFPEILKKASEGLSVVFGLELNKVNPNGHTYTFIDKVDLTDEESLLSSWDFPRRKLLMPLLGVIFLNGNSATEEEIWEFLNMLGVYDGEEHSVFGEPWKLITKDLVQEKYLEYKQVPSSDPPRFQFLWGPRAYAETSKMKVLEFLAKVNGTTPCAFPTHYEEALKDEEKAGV", "assay": "IHC on FFPE NCI-H82 cells (endogenous MAGEB2)", "method": "(§1) FFPE samples were sectioned at 4 μm and mounted on positive charged glass slides. After mounting, paraffin sections were air-dried at room temperature. FFPE TMA samples were received as freshly sectioned and mounted on glass slides. The fully automated IHC assay was performed on a Discovery Ultra Stainer (Ventana Medical Systems, Tucson, AZ) using Ventana Anti-Rabbit HQ (cat #760-4815), Ventana Anti-HQ HRP (cat #760-4820), and Ventana Antibody Diluent with Casein (cat #760-219) (Ventana Medical Systems, Tucson, AZ). The slides were baked on the Discovery Ultra Stainer at 60° C. for 8 minutes, de-paraffinized with Ventana Discovery wash (cat #950-510) for 3 cycles (8 minutes each) at 69° C., and underwent cell conditioning (target retrieval) at 95° C. for 16 minutes (for cell arrays) or 32 minutes (tissues or TMAs) in CC1 buffer (cat #950-500). Following this, slides were incubated with Background Sniper (cat #BS966M, Biocare Medical, Pacheco, CA) in a Ventana Option Prep kit (cat #771-751) for 28 minutes, incubated with CM inhibitor (a part of the Ventana DAB kit cat #760-159) for 12 minutes, and incubated for 1 h at RT with MAGE-B2 antibody diluted with Ventana diluent with Casein in a Ventana Prep kit (cat #770-001) (working concentration at 0.1 μg/ml for cell pellet, or 1-5 ug/ml for tissues) or with a matched concentration of isotype control Rabbit IgG1 antibody. Following this, slides were incubated with the Ventana Anti-Rabbit HQ (cat #760-4815) for 28 minutes at RT, Ventana Anti-HQ HRP (cat #760-4820) for 28 minutes at RT, and signals detected with Ventana DAB chromogen kit (cat #760-159) for 5 minutes at RT. Slides were counterstained with Ventana Hematoxylin II (cat #5266726001) for 8 minutes and Ventana Bluing reagent (cat #526676900) for 4 minutes. Slides were coverslipped and digitized using an Aperio AT2 scanner (Leica Biosystems Inc, Buffalo Grove, IL)."}, "[2]": {"molecular_target": "T1, Human MAGEB2 (Melanoma-associated …)", "assay": "IHC on FFPE NCI-H1703 cells (endogenous MAGEB2)", "method": "as §1"}, "[3]": {"molecular_target": "T1, Human MAGEB2 (Melanoma-associated …)", "assay": "IHC on FFPE KMM-1 cells (endogenous MAGEB2)", "method": "as §1"}, "human MAGEB18": {"molecular_target": "T2, human MAGEB18 (human, UniProt Q96M61 1-343)", "T2 construct": "whole, on cells; FFPE cell pellets; also called MAGE-18", "T2 sequence (looked up)": "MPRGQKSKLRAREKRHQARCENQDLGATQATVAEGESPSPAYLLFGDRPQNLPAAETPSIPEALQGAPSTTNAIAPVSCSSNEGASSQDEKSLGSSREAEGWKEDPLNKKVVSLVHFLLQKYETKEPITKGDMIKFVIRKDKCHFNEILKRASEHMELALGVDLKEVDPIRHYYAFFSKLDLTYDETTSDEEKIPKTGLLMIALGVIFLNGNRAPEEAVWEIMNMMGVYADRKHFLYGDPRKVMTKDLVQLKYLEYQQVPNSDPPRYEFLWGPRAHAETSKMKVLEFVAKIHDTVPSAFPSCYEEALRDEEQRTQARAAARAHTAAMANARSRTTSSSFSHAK", "assay": "IHC, FFPE CHO cells transfected with human MAGEB18", "method": "as §1"}, "[4]": {"molecular_target": "T1, Human MAGEB2 (Melanoma-associated …)", "assay": "IHC on FFPE CFPAC-1 cells (endogenous MAGEB2)", "method": "as §1"}, "[5]": {"molecular_target": "T1, Human MAGEB2 (Melanoma-associated …)", "assay": "IHC on FFPE UM-UC-3 cells (endogenous MAGEB2)", "method": "as §1"}}, "note": "Positions count from the first letter of the chain named."}
{"binder": "B1", "values": [{"measurement": "IHC % Frequency", "setting": "[1]", "value": 0, "unit": "%"}, {"measurement": "IHC Intensity", "setting": "[1]", "value": 1}, {"measurement": "IHC % Frequency", "setting": "[2]", "value": 0, "unit": "%"}, {"measurement": "IHC % Frequency", "setting": "[3]", "value": 70, "unit": "%"}, {"measurement": "IHC Intensity", "setting": "[3]", "value": 1}, {"measurement": "binding result", "setting": "human MAGEB18", "value": "no binding (tested: 0.1 µg/ml)"}, {"measurement": "IHC % Frequency", "setting": "[4]", "value": 0, "unit": "%"}]}
{"binder": "B2", "values": [{"measurement": "IHC % Frequency", "setting": "[1]", "value": 0, "unit": "%"}, {"measurement": "IHC Intensity", "setting": "[1]", "value": 0}, {"measurement": "IHC % Frequency", "setting": "[2]", "value": 0, "unit": "%"}, {"measurement": "IHC Intensity", "setting": "[2]", "value": 0}, {"measurement": "IHC Intensity", "setting": "[5]", "value": 0}, {"measurement": "IHC % Frequency", "setting": "[3]", "value": 70, "unit": "%"}, {"measurement": "IHC Intensity", "setting": "[3]", "value": 2}, {"measurement": "binding result", "setting": "human MAGEB18", "value": "no binding (tested: 0.1 µg/ml)"}, {"measurement": "IHC % Frequency", "setting": "[4]", "value": 0, "unit": "%"}]}
{"binder": "B3", "values": [{"measurement": "IHC % Frequency", "setting": "[1]", "value": 0, "unit": "%"}, {"measurement": "IHC Intensity", "setting": "[1]", "value": 0}, {"measurement": "IHC % Frequency", "setting": "[2]", "value": 0, "unit": "%"}, {"measurement": "IHC Intensity", "setting": "[5]", "value": 0}, {"measurement": "IHC % Frequency", "setting": "[3]", "value": 70, "unit": "%"}, {"measurement": "binding result", "setting": "human MAGEB18", "value": "no binding (tested: 0.1 µg/ml)"}, {"measurement": "IHC % Frequency", "setting": "[4]", "value": 0, "unit": "%"}]}
{"binder": "B4", "values": [{"measurement": "IHC % Frequency", "setting": "[1]", "value": 0, "unit": "%"}, {"measurement": "IHC Intensity", "setting": "[1]", "value": 0}, {"measurement": "IHC % Frequency", "setting": "[2]", "value": 0, "unit": "%"}, {"measurement": "IHC Intensity", "setting": "[5]", "value": 0}, {"measurement": "IHC % Frequency", "setting": "[3]", "value": 70, "unit": "%"}, {"measurement": "IHC Intensity", "setting": "[3]", "value": 1}, {"measurement": "binding result", "setting": "human MAGEB18", "value": "no binding (tested: 0.1 µg/ml)"}, {"measurement": "IHC % Frequency", "setting": "[4]", "value": 0, "unit": "%"}]}
